Reference: article PMC6706414

Biological target: Mimic of H2B ubiquitinated nucleosome core particle with H3K36M (ubiquitin fused to H2A R17, H2B, H3K36M, H4, 149 bp 601 DNA) (S. cerevisiae | Xenopus laevis) (UniProt P0CG63)
Assay: native gel or EMSA; native PAGE; NCPs and Set2 incubated for 1 h on ice in 25 mM HEPES, pH 7.5, 50 mM NaCl, 1 mM DTT, 160 μm SAM

Sequence of UniProt P0CG63 (P0CG63 whole entry, looked up, the tested form may be a part): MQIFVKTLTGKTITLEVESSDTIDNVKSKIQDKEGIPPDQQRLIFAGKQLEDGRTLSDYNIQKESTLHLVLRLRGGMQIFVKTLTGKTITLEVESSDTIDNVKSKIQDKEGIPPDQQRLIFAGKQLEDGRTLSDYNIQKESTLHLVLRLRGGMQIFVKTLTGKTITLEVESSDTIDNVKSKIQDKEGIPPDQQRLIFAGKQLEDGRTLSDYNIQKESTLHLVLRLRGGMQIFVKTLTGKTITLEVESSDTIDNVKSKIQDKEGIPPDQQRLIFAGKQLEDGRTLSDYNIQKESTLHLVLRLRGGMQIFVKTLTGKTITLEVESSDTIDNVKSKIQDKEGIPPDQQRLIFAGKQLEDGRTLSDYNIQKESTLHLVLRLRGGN

percent of the NCP band shifted at twofold excess of Set2: 50%
Substance: Chaetomium thermophilum Set2 methyltransferase, full-length (enzyme)
